Laboratory results as given in patent publication US20220348650A1.

Molecular target: hTIGIT on the surface of T cells of B-hPD-1/hTIGIT double humanized mice (human extracellular region in the mouse genome (C57BL/6)) (UniProt Q495A1)
Assay: flow cytometry on spleen cells of a B-hPD-1/hTIGIT mouse, secondary anti-human Fc FITC; Q3 (TCRβ positive, stain negative) 30.3%

Chain of hTIGIT on the surface of T cells of B-hPD-1/hTIGIT double humanized mice (human extracellular region in the mouse genome (C57BL/6)) (Q495A1 22-141 limits assumed): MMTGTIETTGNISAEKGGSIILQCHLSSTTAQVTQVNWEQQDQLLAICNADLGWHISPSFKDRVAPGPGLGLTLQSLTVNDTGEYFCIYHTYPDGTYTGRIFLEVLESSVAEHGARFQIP

- % of events in quadrant Q2 (mouse TCRβ positive and human IgG positive): 2.61%
Substance: IgG1 isotype control (antibody)
